Measurements from patent US20240270821A1, “GIP/GLP1/GCG TRI-RECEPTOR AGONISTS AND USES THEREOF” (priority 2023, published 2024).
Where a chain is given by its changes, count along the chain named. Non-standard residues stand in square brackets, D forms with d. No end group written: not given here. αMeL = CC(C)C[C@](C)(N)C(=O)O; Aib = CC(C)(N)C(=O)O

T1: human GIP receptor (human) (UniProt P48546)
T1 sequence (looked up): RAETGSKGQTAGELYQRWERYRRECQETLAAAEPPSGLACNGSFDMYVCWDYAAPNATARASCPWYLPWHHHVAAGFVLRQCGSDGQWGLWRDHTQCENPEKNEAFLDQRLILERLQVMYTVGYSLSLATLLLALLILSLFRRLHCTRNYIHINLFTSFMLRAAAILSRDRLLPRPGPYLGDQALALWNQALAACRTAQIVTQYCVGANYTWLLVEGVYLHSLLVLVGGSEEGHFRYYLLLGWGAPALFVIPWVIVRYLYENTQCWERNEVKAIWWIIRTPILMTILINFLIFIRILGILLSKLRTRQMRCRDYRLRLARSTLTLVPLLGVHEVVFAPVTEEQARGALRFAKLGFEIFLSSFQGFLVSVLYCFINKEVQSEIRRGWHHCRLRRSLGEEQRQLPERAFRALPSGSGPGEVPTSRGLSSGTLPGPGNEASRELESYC

B1: Example 279 (peptide)
chain: YXQGTFTSDFSXXLDKKAQXAFIEYLLEXGPSSGAPPPSGX
modifications: synthetic construct; SITE 2: note = 2-Aminoisobutyric Acid; SITE 12: note = L-ornithine; SITE 13: note = alpha-methyl-leucine; SITE 17: note = Lysine is chemically modified through conjugation of the epsilon-amino group of the Lysine side chain with (2-[2-(2-Amino-ethoxy)-ethoxy]-acetyl)-(gamma-Glu)
B2: Example 280 (peptide)
chain: B1 chain with F10X, X12K, L27I, P31E, X41S
modifications: synthetic construct; SITE 2: note = 2-Aminoisobutyric Acid; SITE 10: note = 3-(4-Pyridyl)-L-alanine; SITE 13: note = alpha-methyl-leucine; SITE 17: note = Lysine is chemically modified through conjugation of the epsilon-amino group of the Lysine side chain with (2-[2-(2-Amino-ethoxy)-ethoxy]-acetyl)
B3: Example 282 (peptide)
chain: YXQGTFTSDXSKXLDKKAQXAFIEYLIEXGESSGEPPPSGS
modifications: synthetic construct; SITE 2: note = 2-Aminoisobutyric Acid; SITE 10: note = 3-(4-Pyridyl)-L-alanine; SITE 13: note = alpha-methyl-leucine; SITE 17: note = Lysine is chemically modified through conjugation of the epsilon-amino group of the Lysine side chain with (2-[2-(2-Amino-ethoxy)-ethoxy]-acetyl)
B4: Example 285 (peptide)
chain: B3 chain with E28A, E35A
modifications: synthetic construct; SITE 2: note = 2-Aminoisobutyric Acid; SITE 10: note = 3-(4-Pyridyl)-L-alanine; SITE 13: note = alpha-methyl-leucine; SITE 17: note = Lysine is chemically modified through conjugation of the epsilon-amino group of the Lysine side chain with (2-[2-(2-Amino-ethoxy)-ethoxy]-acetyl)
B5: Example 883 (peptide)
chain: YXQGTFTSDXSQXLDKKAQXAFIEYLIAGGPSSGAPPPSGE
modifications: synthetic construct; SITE 2: note = 2-Aminoisobutyric Acid; SITE 10: note = 3-(4-Pyridyl)-L-alanine; SITE 13: note = alpha-methyl-leucine; SITE 17: note = Lysine is chemically modified through conjugation of the epsilon-amino group of the Lysine side chain with (gamma-Glu)2-CO-(CH2)16-CO2H; SITE 20:
B6: Example 248 (peptide)
chain: B1 chain with P31X, X41E
modifications: synthetic construct; SITE 2: note = 2-Aminoisobutyric Acid; SITE 12: note = L-ornithine; SITE 13: note = alpha-methyl-leucine; SITE 17: note = Lysine is chemically modified through conjugation of the epsilon-amino group of the Lysine side chain with (2-[2-(2-Amino-ethoxy)-ethoxy]-acetyl)-(gamma-Glu)
B7: Example 29 (peptide)
chain: B1 chain with E28A, X29G, A35E, G40E, X41G
modifications: synthetic construct; SITE 2: note = 2-Aminoisobutyric Acid; SITE 12: note = L-ornithine; SITE 13: note = alpha-methyl-leucine; SITE 17: note = Lysine is chemically modified through conjugation of the epsilon-amino group of the Lysine side chain with (2-[2-(2-Amino-ethoxy)-ethoxy]-acetyl)-(gamma-Glu)
B8: Example 31 (peptide)
chain: YXQGTFTSDFSKXLDKKAQXAFIEYLLAGGPSSGEPPPGEG
modifications: synthetic construct; SITE 2: note = 2-Aminoisobutyric Acid; SITE 13: note = alpha-methyl-leucine; SITE 17: note = Lysine is chemically modified through conjugation of the epsilon-amino group of the Lysine side chain with (2-[2-(2-Amino-ethoxy)-ethoxy]-acetyl)-(gamma-Glu)-CO-(CH2) 18-CO2H; SITE 20: n
B9: Example 32 (peptide)
chain: YXQGTFTSDFSKXLDKKAQXAFIEYLLAGGPSSGEPPPSEGX
modifications: synthetic construct; SITE 2: note = 2-Aminoisobutyric Acid; SITE 13: note = alpha-methyl-leucine; SITE 17: note = Lysine is chemically modified through conjugation of the epsilon-amino group of the Lysine side chain with (2-[2-(2-Amino-ethoxy)-ethoxy]-acetyl)-(gamma-Glu)-CO-(CH2) 18-CO2H; SITE 20: n
B10: Example 33 (peptide)
chain: B9 chain with E40G, G41E
modifications: not fully specified; synthetic construct; SITE 2: note = 2-Aminoisobutyric Acid; SITE 13: note = alpha-methyl-leucine; SITE 17: note = Lysine is chemically modified through conjugation of the epsilon-amino group of the Lysine side chain with (2-[2-(2-Amino-ethoxy)-ethoxy]-acetyl)-(gamma-Glu)-CO-(CH2) 18-CO2H; SITE 20: n
B11: Example 37 (peptide)
chain: B8 chain with Y25W, A28E, E35A, G39S
modifications: synthetic construct; SITE 2: note = 2-Aminoisobutyric Acid; SITE 13: note = alpha-methyl-leucine; SITE 17: note = Lysine is chemically modified through conjugation of the epsilon-amino group of the Lysine side chain with (2-[2-(2-Amino-ethoxy)-ethoxy]-acetyl)-(gamma-Glu)-CO-(CH2) 18-CO2H; SITE 20: n
B12: Example 41 (peptide)
chain: B1 chain with X12R, X29G, S39G, X41S
modifications: synthetic construct; SITE 2: note = 2-Aminoisobutyric Acid; SITE 13: note = alpha-methyl-leucine; SITE 17: note = Lysine is chemically modified through conjugation of the epsilon-amino group of the Lysine side chain with (2-[2-(2-Amino-ethoxy)-ethoxy]-acetyl)-(gamma-Glu)-CO-(CH2) 18-CO2H; SITE 20: n
B13: Example 42 (peptide)
chain: B1 chain with X12R, S39G, X41S
modifications: synthetic construct; SITE 2: note = 2-Aminoisobutyric Acid; SITE 13: note = alpha-methyl-leucine; SITE 17: note = Lysine is chemically modified through conjugation of the epsilon-amino group of the Lysine side chain with (2-[2-(2-Amino-ethoxy)-ethoxy]-acetyl)-(gamma-Glu)-CO-(CH2) 18-CO2H; SITE 20: n
B14: Example 43 (peptide)
chain: B1 chain with X12K, S39G, X41S
modifications: synthetic construct; SITE 2: note = 2-Aminoisobutyric Acid; SITE 13: note = alpha-methyl-leucine; SITE 17: note = Lysine is chemically modified through conjugation of the epsilon-amino group of the Lysine side chain with (2-[2-(2-Amino-ethoxy)-ethoxy]-acetyl)-(gamma-Glu)-CO-(CH2) 18-CO2H; SITE 20: n
B15: Example 44 (peptide)
chain: B1 chain with X12K, G40S, X41G
modifications: synthetic construct; SITE 2: note = 2-Aminoisobutyric Acid; SITE 13: note = alpha-methyl-leucine; SITE 17: note = Lysine is chemically modified through conjugation of the epsilon-amino group of the Lysine side chain with (2-[2-(2-Amino-ethoxy)-ethoxy]-acetyl)-(gamma-Glu)-CO-(CH2) 18-CO2H; SITE 20: n
B16: Example 74 (peptide)
chain: B1 chain with X41S
modifications: synthetic construct; SITE 2: note = 2-Aminoisobutyric Acid; SITE 12: note = L-ornithine; SITE 13: note = alpha-methyl-leucine; SITE 17: note = Lysine is chemically modified through conjugation of the epsilon-amino group of the Lysine side chain with (2-[2-(2-Amino-ethoxy)-ethoxy]-acetyl)-(gamma-Glu)
B17: Example 85 (peptide)
chain: B1 chain with E28A, X29G, X41D
modifications: synthetic construct; SITE 2: note = 2-Aminoisobutyric Acid; SITE 12: note = L-ornithine; SITE 13: note = alpha-methyl-leucine; SITE 17: note = Lysine is chemically modified through conjugation of the epsilon-amino group of the Lysine side chain with (2-[2-(2-Amino-ethoxy)-ethoxy]-acetyl)-(gamma-Glu)
B18: Example 86 (peptide)
chain: B1 chain with E28A, X29G, X41E
modifications: synthetic construct; SITE 2: note = 2-Aminoisobutyric Acid; SITE 12: note = L-ornithine; SITE 13: note = alpha-methyl-leucine; SITE 17: note = Lysine is chemically modified through conjugation of the epsilon-amino group of the Lysine side chain with (2-[2-(2-Amino-ethoxy)-ethoxy]-acetyl)-(gamma-Glu)
B19: Example 90 (peptide)
chain: B9 chain with K12X, E35A, E40G, G41S, X42E
modifications: synthetic construct; SITE 2: note = 2-Aminoisobutyric Acid; SITE 12: note = L-ornithine; SITE 13: note = alpha-methyl-leucine; SITE 17: note = Lysine is chemically modified through conjugation of the epsilon-amino group of the Lysine side chain with (2-[2-(2-Amino-ethoxy)-ethoxy]-acetyl)-(gamma-Glu)

Target: human GLP-1R (SNAP-GLP-1R expressed in HEK293 cells) (human) (UniProt P43220)
Assay: cell-based or functional assay

Sequence of human GLP-1R (SNAP-GLP-1R expressed in HEK293 cells) (human) (P43220 24-463): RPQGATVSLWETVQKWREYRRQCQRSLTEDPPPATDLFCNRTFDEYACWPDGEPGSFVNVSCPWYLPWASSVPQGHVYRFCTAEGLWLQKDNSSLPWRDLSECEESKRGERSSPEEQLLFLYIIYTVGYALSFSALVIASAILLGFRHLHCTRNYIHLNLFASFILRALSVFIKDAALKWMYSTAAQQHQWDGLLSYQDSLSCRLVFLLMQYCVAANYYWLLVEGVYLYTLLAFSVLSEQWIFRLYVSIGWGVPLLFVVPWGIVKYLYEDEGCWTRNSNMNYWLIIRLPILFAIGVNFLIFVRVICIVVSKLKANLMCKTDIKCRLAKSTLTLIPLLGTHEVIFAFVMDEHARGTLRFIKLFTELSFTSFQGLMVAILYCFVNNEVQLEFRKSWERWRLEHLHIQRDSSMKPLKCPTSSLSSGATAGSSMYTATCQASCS

Binder | GLP1R Internalization EC50 | Internalization % TOP
B1 | 115 nM | 37.5%
B2 | 39.4 nM | 74.9%
B3 | 28.7 nM | 71.9%
B4 | 59.9 nM | 73.6%
B5 | 23.9 nM | 77.1%
B6 | 67.4 nM | 39.5%

Target: human GLP1-R (SNAP-GLP-1R expressed in HEK293 cells) (human) (UniProt P43220)
Assay: cell-based or functional assay

Sequence of human GLP1-R (SNAP-GLP-1R expressed in HEK293 cells) (human) (P43220 24-463): as above

Binder | GLP1R Internalization EC50 | Internalization % TOP
B7 | 129 nM | 57%
Y[Aib]QGTFTSDFSK[αMeL]LDKKAQQAFIEYLLA[Aib]GPSSGAPPPSEG-NH2 (not fully specified (residue 17)) [Example 30] | 70.4 nM | 72.8%
B8 | 91.9 nM | 67.4%
B9 | 86.1 nM | 64.4%
B10 | 106 nM | 64.6%
B11 | 51.6 nM | 68.3%
B12 | 83.7 nM | 62.3%
B13 | 61.4 nM | 58.3%
B14 | 58.2 nM | 68.3%
B15 | 51.5 nM | 65%
B16 | 72.7 nM | 53.3%
B17 | 326 nM | 48.3%
B18 | 57.8 nM | 52.5%
B19 | 70.8 nM | 49.8%

Target: T1, human GIP receptor (human)
Assay: cell-based or functional assay

Binder | Relative cAMP EC50 | cAMP Rel EC50 (in the presence of 1% HSA)
B7 | 0.35 nM | 70.1 nM
Y[Aib]QGTFTSDFSK[αMeL]LDKKAQQAFIEYLLA[Aib]GPSSGAPPPSEG-NH2 (not fully specified (residue 17)) [Example 30] | 0.247 nM | 72.9 nM
B8 | 0.249 nM | 63.6 nM
B9 | 0.28 nM | 66.1 nM
B10 | 0.285 nM | 70.7 nM
B11 | 0.207 nM | 56.4 nM
B12 | 0.258 nM | 97.9 nM
B13 | 0.115 nM | 32.3 nM
B14 | 0.101 nM | 29.6 nM
B15 | 0.116 nM | 35.9 nM
B1 | 0.105 nM | 11.6 nM
B2 | 0.105 nM | 15.6 nM
B3 | 0.163 nM | 22.1 nM
B4 | 0.0652 nM | 8.22 nM
B5 | 0.0779 nM | 
B6 |  | 10.6 nM

Target: hGLP-1R (Homo sapiens, UniProt P43220)
Assay: cell-based or functional assay

Sequence of hGLP-1R (P43220 24-463): as above

Binder | Relative cAMP EC50 | cAMP Rel EC50 (in the presence of 1% HSA)
B7 | 3.56 nM | 493 nM
Y[Aib]QGTFTSDFSK[αMeL]LDKKAQQAFIEYLLA[Aib]GPSSGAPPPSEG-NH2 (not fully specified (residue 17)) [Example 30] | 3.18 nM | 806 nM
B8 | 2.16 nM | 737 nM
B9 | 2.55 nM | 422 nM
B10 | 1.71 nM | 436 nM
B11 | 1.66 nM | 514 nM
B12 | 2.2 nM | 711 nM
B13 | 2.17 nM | 700 nM
B14 | 1.55 nM | 539 nM
B15 | 1.66 nM | 591 nM
B1 | 5.77 nM | 367 nM
B2 | 0.95 nM | 171 nM
B3 | 1.09 nM | 217 nM
B4 | 2.87 nM | 365 nM
B5 | 1.05 nM | 
B6 |  | 438 nM

Target: human glucagon receptor (human) (UniProt P47871)
Assay: cell-based or functional assay

Sequence of human glucagon receptor (human) (P47871 26-477): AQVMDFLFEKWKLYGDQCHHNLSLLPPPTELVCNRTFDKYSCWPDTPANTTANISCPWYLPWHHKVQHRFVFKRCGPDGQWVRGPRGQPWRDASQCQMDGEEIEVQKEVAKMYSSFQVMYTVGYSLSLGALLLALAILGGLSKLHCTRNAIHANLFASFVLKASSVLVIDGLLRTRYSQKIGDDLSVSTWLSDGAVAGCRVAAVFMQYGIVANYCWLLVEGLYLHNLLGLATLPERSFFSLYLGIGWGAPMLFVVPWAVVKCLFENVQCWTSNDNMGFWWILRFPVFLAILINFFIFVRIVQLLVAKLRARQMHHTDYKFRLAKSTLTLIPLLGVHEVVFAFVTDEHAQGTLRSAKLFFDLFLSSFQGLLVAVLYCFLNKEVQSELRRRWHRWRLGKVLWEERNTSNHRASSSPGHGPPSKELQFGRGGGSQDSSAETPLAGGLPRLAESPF

Binder | Relative cAMP EC50 | cAMP Rel EC50 (in the presence of 1% HSA)
B7 | 11.1 nM | 1350 nM
Y[Aib]QGTFTSDFSK[αMeL]LDKKAQQAFIEYLLA[Aib]GPSSGAPPPSEG-NH2 (not fully specified (residue 17)) [Example 30] | 5.22 nM | 969 nM
B8 | 8.42 nM | 1750 nM
B9 | 11.6 nM | 1440 nM
B10 | 7.04 nM | 1310 nM
B11 | 6.83 nM | 1870 nM
B12 | 8.59 nM | 2310 nM
B13 | 5.83 nM | 1520 nM
B14 | 2.71 nM | 850 nM
B15 | 2.46 nM | 1050 nM
B1 | 5.06 nM | 427 nM
B2 | 8.63 nM | 1600 nM
B3 | 6.98 nM | 1830 nM
B4 | 2.32 nM | 409 nM
B5 | 4.02 nM | 
B6 |  | 241 nM
